B1: GTGCAC_negctrl_site636 (dsDNA)
DNA 1: TTTTGTTGAAAAAAAAAAAAAAAATTAAATTAAATT
DNA 2: AATTTAATTTAATTTTTTTTTTTTTTTTCAACAAAA
B2: GTGCAC_negctrl_site493 (dsDNA)
DNA 1: TTCTCAAATATAATAAAATTATAAAGTGACCTAACT
DNA 2: AGTTAGGTCACTTTATAATTTTATTATATTTGAGAA
B3: GTGCAC_negctrl_site348 (dsDNA)
DNA 1: AAAATAAAAGAATAAAAATATGAAACTTTTTTAAAA
DNA 2: TTTTAAAAAAGTTTCATATTTTTATTCTTTTATTTT
B4: GTGCAC_site10129 (dsDNA)
DNA 1: GCATATGTATATAATGTGCACATGGATTATATAAAA
DNA 2: TTTTATATAATCCATGTGCACATTATATACATATGC
B5: GTGCAC_negctrl_site443 (dsDNA)
DNA 1: ATATAATTTGTTATACTAACTTTTTAATTATTGATA
DNA 2: TATCAATAATTAAAAAGTTAGTATAACAAATTATAT
B6: GTGCAC_negctrl_site610 (dsDNA)
DNA 1: AATATATGGTTTCATGATATAAAATTCAATTTAATG
DNA 2: CATTAAATTGAATTTTATATCATGAAACCATATATT
B7: GTGCAC_negctrl_site626 (dsDNA)
DNA 1: AAAATATAAATATATTTGAACATGGATCAAATGTAA
DNA 2: TTACATTTGATCCATGTTCAAATATATTTATATTTT
B8: GTGCAC_site9562 (dsDNA)
DNA 1: ACATTTAAATAATATGTGCACAGCTATATTTTCTTT
DNA 2: AAAGAAAATATAGCTGTGCACATATTATTTAAATGT
B9: GTGCAC_negctrl_site163 (dsDNA)
DNA 1: ATTTTTTTATAAAATTTTTATATATTATATAAATAT
DNA 2: ATATTTATATAATATATAAAAATTTTATAAAAAAAT
B10: GTGCAC_negctrl_site402 (dsDNA)
DNA 1: AAAAAAAAAATACAACAAAGTTAAATAAATAAATAA
DNA 2: TTATTTATTTATTTAACTTTGTTGTATTTTTTTTTT
B11: GTGCAC_negctrl_site724 (dsDNA)
DNA 1: TCCTCAAAAAAATAAAATAATTTATACTTTTTTAAA
DNA 2: TTTAAAAAAGTATAAATTATTTTATTTTTTTGAGGA
B12: GTGCAC_negctrl_site310 (dsDNA)
DNA 1: TTACTAAAAATTATTAATAAATAATAATTATAAATT
DNA 2: AATTTATAATTATTATTTATTAATAATTTTTAGTAA
B13: GTGCAC_negctrl_site329 (dsDNA)
DNA 1: TTTTTTTCTTTTTCAAAAAAAAAAAAAAAAAAAATA
DNA 2: TATTTTTTTTTTTTTTTTTTTTGAAAAAGAAAAAAA
B14: GTGCAC_negctrl_site167 (dsDNA)
DNA 1: TTGTATTTACACGATCAACCAAATGGTATATAAATA
DNA 2: TATTTATATACCATTTGGTTGATCGTGTAAATACAA
B15: GTGCAC_site10155 (dsDNA)
DNA 1: TTGATAAAATCACTGGTGCATGTAGATATATAATAT
DNA 2: ATATTATATATCTACATGCACCAGTGATTTTATCAA
B16: GTGCAC_negctrl_site350 (dsDNA)
DNA 1: TTCACTTTTTTTTTTTTTTTTTTTTTTTTTTTTATT
DNA 2: AATAAAAAAAAAAAAAAAAAAAAAAAAAAAAGTGAA
B17: GTGCAC_negctrl_site520 (dsDNA)
DNA 1: AAAAAAAAATAAATAAATATATATAATATTTATGTT
DNA 2: AACATAAATATTATATATATTTATTTATTTTTTTTT
B18: GTGCAC_negctrl_site521 (dsDNA)
DNA 1: AGTGGAATGTATGATTTTCATTCCTTAAAATTTTAA
DNA 2: TTAAAATTTTAAGGAATGAAAATCATACATTCCACT
B19: GTGCAC_negctrl_site503 (dsDNA)
DNA 1: AAACAAAAGTAGAAGGTAGAGTATTTTATATTTAAA
DNA 2: TTTAAATATAAAATACTCTACCTTCTACTTTTGTTT

Molecular target: T1, SIP2 D1 (Plasmodium falciparum, UniProt C6KSN9 177-235)
T1 sequence: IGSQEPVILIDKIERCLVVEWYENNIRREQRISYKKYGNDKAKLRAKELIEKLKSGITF
Test: gcPBM; about 25 ug protein; PBS, 1% milk, 0.2 mg/ml BSA, salmon testes DNA, 0.03% Triton X-100
Conditions: tags: N-terminal GST (pGEX-4T-1), kept; label: surface-attached array probe

Compared with B1, B2 is higher in binding signal: 6.63 ln median PBM intensity, better of two orientations for the first, 6.88 ln median PBM intensity, better of two orientations for the second.

First: B3
Second: B4
The binding signal of the first is lower: 6.41 ln median PBM intensity, better of two orientations for the first, 9.12 ln median PBM intensity, better of two orientations for the second.

First: B5
Second: B6
The binding signal of the first is higher: 6.82 ln median PBM intensity, better of two orientations for the first, 6.78 ln median PBM intensity, better of two orientations for the second.

Compared with B7, B8 is higher in binding signal: 6.71 ln median PBM intensity, better of two orientations for the first, 9.19 ln median PBM intensity, better of two orientations for the second.

Going from B9 to B10, the binding signal falls from 6.9 ln median PBM intensity, better of two orientations to 6.65 ln median PBM intensity, better of two orientations.

Compared with B11, B12 is lower in binding signal: 6.79 ln median PBM intensity, better of two orientations for the first, 6.58 ln median PBM intensity, better of two orientations for the second.

Going from B13 to B14, the binding signal rises from 6.85 ln median PBM intensity, better of two orientations to 6.87 ln median PBM intensity, better of two orientations.

First: B15
Second: B16
The binding signal of the first is higher: 9.7 ln median PBM intensity, better of two orientations for the first, 6.86 ln median PBM intensity, better of two orientations for the second.

Compared with B17, B18 is lower in binding signal: 6.84 ln median PBM intensity, better of two orientations for the first, 6.55 ln median PBM intensity, better of two orientations for the second.

With B19 the binding signal was 6.67 ln median PBM intensity, better of two orientations.

Molecular target: T2, HDP1 homeodomain-like (Plasmodium falciparum, UniProt Q8IKH4 2990-3078)
T2 sequence: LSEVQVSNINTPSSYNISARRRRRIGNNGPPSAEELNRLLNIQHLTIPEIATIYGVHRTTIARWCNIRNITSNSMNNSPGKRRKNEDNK
Test: as above
Conditions: tags: N-terminal GST (pGEX-4T-1), kept; chain copies: 2; label: surface-attached array probe

Compared with B1, B2 is higher in binding signal: 5.87 ln median PBM intensity, better of two orientations for the first, 6.1 ln median PBM intensity, better of two orientations for the second.

Going from B3 to B4, the binding signal rises from 5.89 ln median PBM intensity, better of two orientations to 11.2 ln median PBM intensity, better of two orientations.

Going from B5 to B6, the binding signal falls from 6.13 ln median PBM intensity, better of two orientations to 6.09 ln median PBM intensity, better of two orientations.

First: B7
Second: B8
The binding signal of the first is lower: 6.08 ln median PBM intensity, better of two orientations for the first, 10.9 ln median PBM intensity, better of two orientations for the second.

First: B9
Second: B10
The binding signal of the first is lower: 6.2 ln median PBM intensity, better of two orientations for the first, 6.34 ln median PBM intensity, better of two orientations for the second.

First: B11
Second: B12
The binding signal of the first is higher: 6.01 ln median PBM intensity, better of two orientations for the first, 5.75 ln median PBM intensity, better of two orientations for the second.

Compared with B13, B14 is higher in binding signal: 5.41 ln median PBM intensity, better of two orientations for the first, 6.23 ln median PBM intensity, better of two orientations for the second.

First: B15
Second: B16
The binding signal of the first is higher: 9.06 ln median PBM intensity, better of two orientations for the first, 6 ln median PBM intensity, better of two orientations for the second.

First: B17
Second: B18
The binding signal of the first is higher: 6.16 ln median PBM intensity, better of two orientations for the first, 5.94 ln median PBM intensity, better of two orientations for the second.

B19 was tested, and the binding signal was 6.07 ln median PBM intensity, better of two orientations.

— PMC11417369, “DNA sequence and chromatin differentiate sequence-specific transcription factor binding in the human malaria parasite Plasmodium falciparum”
